The record followed here is the supplement of paper PMC7125110.

± gives the standard error. Variants at the floor of the assay were thinned out.

B1: glmS ribozyme (parent)
chain: AUAAAAGCGCCAGAACUACAGAAAUGUAGUUGACGAGGAGGAGGUUUAUCGAAUUUUCGGCGGAUGCCUCCAAA

Common to all, as to settings: with glucosamine-6-phosphate
The variants in series [1] derive from B1. Description: self-cleavage kobs at 40 uM GlcN6P; higher = faster cleavage; RNA array. An outline of the steps: (§1)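 Barcoded glmS ribozyme variants on sequenced MiSeq chips were transcribed in situ by E. coli RNA polymerase and tracked through a hybridised Cy3 probe at 37 °C. Glucosamine-6-phosphate (40 μM to 10 mM) in HEPES/KCl/Mg(OAc)2 buffer was flowed in, and tiles were imaged over ~14 h. Signals were normalised to baseline and to non-cleaving reference variants; per-tile medians were fit to one- or two-exponential decays to give kobs. kcat and KM came from weighted Michaelis–Menten fits across concentrations.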

The variants in series [2] derive from B1. Description: self-cleavage kobs at 2500 uM GlcN6P; higher = faster cleavage; RNA array. An outline of the steps: as §1
Variants of B1 are the subject of series [3]. Description: self-cleavage kobs at 10000 uM GlcN6P; higher = faster cleavage; RNA array. An outline of the steps:
as §1

In series [4] the parent is B1. As to the kind of experiment: self-cleavage kobs at 160 uM GlcN6P; higher = faster cleavage; RNA array. A digest of the protocol:
as §1

Series [5] covers variants of B1. As to the kind of experiment: self-cleavage kobs at 640 uM GlcN6P; higher = faster cleavage; RNA array. A digest of the protocol: as §1

On to AUAAAAGCGCCAGAACUACAGAAAUGUAGUUGACGAGGAGGAGGUUUAUCGAAUUGUCGGCAGAUGCCUCCAAA [U56G G62A], for which the “self-cleavage kobs at 40 uM GlcN6P” value with glucosamine-6-phosphate [1] was < 1e-05 s⁻¹. Besides, in the series with glucosamine-6-phosphate [2], the “self-cleavage kobs at 2500 uM GlcN6P” value is < 1e-05 s⁻¹. Further, the “self-cleavage kobs at 10000 uM GlcN6P” value with glucosamine-6-phosphate [3] is < 1e-05 s⁻¹.
As for AUAAAAACGCGUGAACUACAGAAAUGUAGUUGACGAGGAGGCGAUUUAUCCAUUUUUCGGCGGAUGCCUCUAAA [G7A C11G A12U A42C G44A G51C A53U C71U], the “self-cleavage kobs at 40 uM GlcN6P” value with glucosamine-6-phosphate [1] is < 1e-05 s⁻¹. Also, the “self-cleavage kobs at 10000 uM GlcN6P” value in the series with glucosamine-6-phosphate [3] is < 1e-05 s⁻¹.
For the variant UGGAUCCAGCCAGAACUACAGAAAUGUACUUUACGAGGAGGAGGUUUAUCGAAUUUUCGUCGGAUGCCUCCAAA [A1U U2G A3G A5U A6C G7C C8A G29C G32U G60U], the “self-cleavage kobs at 40 uM GlcN6P” value with glucosamine-6-phosphate [1] was < 1e-05 s⁻¹.
In the case of AUAAAAGCGCCAGAACUACAGAAAUGUAGUUGACGAGGAGGAAGUUUAUCGAAUUUUCGGCAGAUGCCUCCAAA [G43A G62A], the “self-cleavage kobs at 40 uM GlcN6P” value with glucosamine-6-phosphate [1] is < 1e-05 s⁻¹. Also, the “self-cleavage kobs at 160 uM GlcN6P” value with glucosamine-6-phosphate [4] was < 1e-05 s⁻¹. For the same variant, the “self-cleavage kobs at 2500 uM GlcN6P” value with glucosamine-6-phosphate [2] is < 1e-05 s⁻¹. For the same variant, in the series with glucosamine-6-phosphate [3], the “self-cleavage kobs at 10000 uM GlcN6P” value is < 1e-05 s⁻¹.
Turning to AUAAAAGCGCCAGAACUACAGAAAUGUAGUUGACGAGGAGGAGGUUUAUCGAGUUUUCGGCAGAUGUCUCCAAA [A53G G62A C67U], the “self-cleavage kobs at 40 uM GlcN6P” value in the series with glucosamine-6-phosphate [1] is < 1e-05 s⁻¹.
Regarding AUAAACGCGCCAGAACUACAGAAAUGUAGUUGACGAGGAGGAGGUAUAUCGAAUUUUCGGCGGAUGCCUCCAAA [A6C U46A], the “self-cleavage kobs at 40 uM GlcN6P” value in the series with glucosamine-6-phosphate [1] is < 1e-05 s⁻¹. In the series with glucosamine-6-phosphate [4], the “self-cleavage kobs at 160 uM GlcN6P” value was < 1e-05 s⁻¹. Further, the “self-cleavage kobs at 640 uM GlcN6P” value in the series with glucosamine-6-phosphate [5] is < 1e-05 s⁻¹.
For AUAAAGGCGCCAGAACUACAGAAAUGUAGUUGGCUAGGAGGAGGUUUAUCGAAUUUUCGGCGGAUGCGUUCAAA [A6G A33G G35U C68G C70U], in the series with glucosamine-6-phosphate [1], the “self-cleavage kobs at 40 uM GlcN6P” value came out at 6.36e-05 ± 1.8e-05 s⁻¹. In addition, the “self-cleavage kobs at 10000 uM GlcN6P” value in the series with glucosamine-6-phosphate [3] was determined as 0.000167 ± 3.1e-05 s⁻¹.
As to AUAAAAUCGCCAGAACUACAGAAAUGUAGUUGACGAGGAGGACGUUUAUCGAAUUUUCGGCGGAUGCCUCCAAA [G7U G43C], the “self-cleavage kobs at 40 uM GlcN6P” value with glucosamine-6-phosphate [1] is < 1e-05 s⁻¹. Also, the “self-cleavage kobs at 160 uM GlcN6P” value in the series with glucosamine-6-phosphate [4] is < 1e-05 s⁻¹. For the same variant, the “self-cleavage kobs at 640 uM GlcN6P” value in the series with glucosamine-6-phosphate [5] was < 1e-05 s⁻¹.
On to AUAAAAGCGCCAGAACUACAGAAAUGUAGUUGACGAGGAGGAAGUUUUUCGAAUUUUCGGCGGAUGCCUCCAAA [G43A A48U], for which, in the series with glucosamine-6-phosphate [1], the “self-cleavage kobs at 40 uM GlcN6P” value is < 1e-05 s⁻¹. The “self-cleavage kobs at 160 uM GlcN6P” value in the series with glucosamine-6-phosphate [4] is < 1e-05 s⁻¹. Besides, the “self-cleavage kobs at 640 uM GlcN6P” value with glucosamine-6-phosphate [5] was < 1e-05 s⁻¹. Moreover, the “self-cleavage kobs at 2500 uM GlcN6P” value with glucosamine-6-phosphate [2] is < 1e-05 s⁻¹. Besides, in the series with glucosamine-6-phosphate [3], the “self-cleavage kobs at 10000 uM GlcN6P” value is < 1e-05 s⁻¹.
In the case of AUAAAAACGCCAGAACUACAGAAAUGUAGUUGACGAGGAGGAUGUUUAUCGAAUUUUCGGCGGAUGCCUCCAAA [G7A G43U], the “self-cleavage kobs at 40 uM GlcN6P” value with glucosamine-6-phosphate [1] is < 1e-05 s⁻¹. Moreover, in the series with glucosamine-6-phosphate [4], the “self-cleavage kobs at 160 uM GlcN6P” value is < 1e-05 s⁻¹. In the series with glucosamine-6-phosphate [5], the “self-cleavage kobs at 640 uM GlcN6P” value is < 1e-05 s⁻¹. Also, the “self-cleavage kobs at 2500 uM GlcN6P” value in the series with glucosamine-6-phosphate [2] is < 1e-05 s⁻¹. Moreover, the “self-cleavage kobs at 10000 uM GlcN6P” value with glucosamine-6-phosphate [3] was < 1e-05 s⁻¹.
Regarding AUAAAAGCGCCAGAACUACAGAAAUGUAGUUGACGCGGAAGAGGUUUAUCGAAUUGUCGGCGGAUGCCUCCAAA [A36C G40A U56G], in the series with glucosamine-6-phosphate [1], the “self-cleavage kobs at 40 uM GlcN6P” value is < 1e-05 s⁻¹.
As for AUAAAAGCGCCAGAACUACAGAAAUGUAGUUGACGAGGAGGAGGUCUAUCGAAUUUUCAGCGGAUGCCUCCAAA [U46C G59A], the “self-cleavage kobs at 40 uM GlcN6P” value with glucosamine-6-phosphate [1] was < 1e-05 s⁻¹. The “self-cleavage kobs at 640 uM GlcN6P” value in the series with glucosamine-6-phosphate [5] was < 1e-05 s⁻¹. The “self-cleavage kobs at 10000 uM GlcN6P” value with glucosamine-6-phosphate [3] was found to be 4.71e-05 ± 1.4e-05 s⁻¹.
On to AUAAACGCGCCAGAGCUACAGAAAUGUAGUUGACGAGGAGGAGGGUUAUCGAAUUUUCGGCGGAUGCCUCCAAA [A6C A15G U45G], for which, in the series with glucosamine-6-phosphate [1], the “self-cleavage kobs at 40 uM GlcN6P” value is < 1e-05 s⁻¹. For the same variant, the “self-cleavage kobs at 160 uM GlcN6P” value with glucosamine-6-phosphate [4] was < 1e-05 s⁻¹.
Take AUAAAAGCGCCAGAACUACAGAAAUGUAGUUGACGAGGAGGAGGUUUAUCCAAUUUUUGGCGGAUGCAUCCAAA [G51C C58U C68A]: in the series with glucosamine-6-phosphate [1], the “self-cleavage kobs at 40 uM GlcN6P” value is < 1e-05 s⁻¹.
